Measured values: article PMC3824165

How the values were obtained:
[1] = target: host cellular β-tubulin (293T cells) (human (endogenous in 293T)) (UniProt P07437); assay: co-IP
[2] = target: host cellular β-tubulin (Vero cells) (African green monkey (endogenous in Vero)); assay: co-IP

Row | Substance | ratio of precipitated TgRON4 to TgRON4 in total membrane fraction [1] [%] | ratio of precipitated TgRON4 to TgRON4 in total membrane fraction [2] [%]
1 | 3xFLAG-tagged C-terminal half of TgRON4 (TgRON4B) (domain or fragment) | 0.82 | 0.56
2 | 3xFLAG-tagged full-length TgRON4 lacking its putative signal sequence (TgRON4-Full) (from UniProt B6KJ32 27-984) (natural protein) |  | 1
